Key:
[1] = target: His6-tagged H3.1/H4 complex (human, UniProt P68431;P62805); experiment: pull-down
[2] = target: His6-tagged H3t/H4 complex (human, UniProt Q16695;P62805); experiment: pull-down
[3] = target: T1, H3.1/H4 complex (His6 tags removed) (human, UniProt P68431;P62805); experiment: native gel or EMSA
[4] = target: T2, H3t/H4 complex (His6 tags removed) (human, UniProt Q16695;P62805); experiment: native gel or EMSA
[5] = target: T1, H3.1/H4 complex (His6 tags removed); experiment: pull-down
[6] = target: T2, H3t/H4 complex (His6 tags removed); experiment: pull-down

B1: human Nap1 (nucleosome assembly protein 1), His6 tag removed (natural protein)
chain: MADIDNKEQSELDQDLDDVEEVEEEETGEETKLKARQLTVQMMQNPQILAALQERLDGLVETPTGYIESLPRVVKRRVNALKNLQVKCAQIEAKFYEEVHDLERKYAVLYQPLFDKRFEIINAIYEPTEEECEWKPDEEDEISEELKEKAKIEDEKKDEEKEDPKGIPEFWLTVFKNVDLLSDMVQEHDEPILKHLKDIKVKFSDAGQPMSFVLEFHFEPNEYFTNEVLTKTYRMRSEPDDSDPFSFDGPEIMGCTGCQIDWKKGKNVTLKTIKKKQKHKGRGTVRTVTKTVSNDSFFNFFAPPEVPESGDLDDDAEAILAADFEIGHFLRERIIPRSVLYFTGEAIEDDDDDYDEEGEEADEEGEEEGDEENDPDYDPKKDQNPAECKQQ
binding result [1]: binds | binding result [2]: binds | binding result [3]: binds | binding result [4]: binds

B2: His6-tagged human Nap1 (natural protein)
chain: MADIDNKEQSELDQDLDDVEEVEEEETGEETKLKARQLTVQMMQNPQILAALQERLDGLVETPTGYIESLPRVVKRRVNALKNLQVKCAQIEAKFYEEVHDLERKYAVLYQPLFDKRFEIINAIYEPTEEECEWKPDEEDEISEELKEKAKIEDEKKDEEKEDPKGIPEFWLTVFKNVDLLSDMVQEHDEPILKHLKDIKVKFSDAGQPMSFVLEFHFEPNEYFTNEVLTKTYRMRSEPDDSDPFSFDGPEIMGCTGCQIDWKKGKNVTLKTIKKKQKHKGRGTVRTVTKTVSNDSFFNFFAPPEVPESGDLDDDAEAILAADFEIGHFLRERIIPRSVLYFTGEAIEDDDDDYDEEGEEADEEGEEEGDEENDPDYDPKKDQNPAECKQQ
binding result [5]: binds | binding result [6]: binds

B3: His6-tagged human Nap2 (natural protein)
chain: MADHSFSDGVPSDSVEAAKNASNTEKLTDQVMQNPRVLAALQERLDNVPHTPSSYIETLPKAVKRRINALKQLQVRCAHIEAKFYEEVHDLERKYAALYQPLFDKRREFITGDVEPTDAESEWHSENEEEEKLAGDMKSKVVVTEKAAATAEEPDPKGIPEFWFTIFRNVDMLSELVQEYDEPILKHLQDIKVKFSDPGQPMSFVLEFHFEPNDYFTNSVLTKTYKMKSEPDKADPFSFEGPEIVDCDGCTIDWKKGKNVTVKTIKKKQKHKGRGTVRTITKQVPNESFFNFFNPLKASGDGESLDEDSEFTLASDFEIGHFFRERIVPRAVLYFTGEAIEDDDNFEEGEEGEEEELEGDEEGEDEDDAEINPKV
binding result [5]: binds | binding result [6]: binds

B4: human Nap2, His6 tag removed (natural protein)
chain: MADHSFSDGVPSDSVEAAKNASNTEKLTDQVMQNPRVLAALQERLDNVPHTPSSYIETLPKAVKRRINALKQLQVRCAHIEAKFYEEVHDLERKYAALYQPLFDKRREFITGDVEPTDAESEWHSENEEEEKLAGDMKSKVVVTEKAAATAEEPDPKGIPEFWFTIFRNVDMLSELVQEYDEPILKHLQDIKVKFSDPGQPMSFVLEFHFEPNDYFTNSVLTKTYKMKSEPDKADPFSFEGPEIVDCDGCTIDWKKGKNVTVKTIKKKQKHKGRGTVRTITKQVPNESFFNFFNPLKASGDGESLDEDSEFTLASDFEIGHFFRERIVPRAVLYFTGEAIEDDDNFEEGEEGEEEELEGDEEGEDEDDAEINPKV
binding result [1]: binds | binding result [2]: binds
